Numbering of substitutions follows the chain as printed.
B1: 2F5 reverted unmutated ancestor antibody RUA1 (antibody, V domains shown)
VH: QITLKESGPTLVKPTQTLTLTCTFSGFSLSTSGVGVGWIRQPPGKALEWLALIYWNDDKRYSPSLKSRLTITKDTSKNQVVLTMTNMDPVDTATYYCAHRRGPTTLFGVVIARGPVNGMDVWGQGTTVTVSS
VL: AIQLTQSPSSLSASVGDRVTITCRASQGISSALAWYQQKPGKAPKLLIYDASSLESGVPSRFSGSGSGTDFTLTISSLQPEDFATYYCQQFNNYPHTFGGGTKVEIK
B2: 2F5 reverted unmutated ancestor antibody RUA2 (antibody, V domains shown)
VH: B1 VH with N56D, S62G
VL: B1 VL

Experiments:
[1] = substrate: CON-S gp140CFI Env, natively deglycosylated with PNGase F 500 U per µg (HIV-1 group M consensus); assay: SPR
[2] = target: group M consensus gp140 Env, CON-S gp140CFI, WT glycosylated (HIV-1 group M consensus); assay: SPR

Binder | Kd [1] [µM] | Kd [2] [µM]
B1 | 0.067 | 0.118
B2 | 0.36 | 4

Source: paper PMC3164629
